This note sets out measurements from US10047131B2, “Peptides and combination of peptides for use in immunotherapy against ovarian cancer and other cancers” (immatics biotechnologies GmbH, priority 2015, dated 2018).

This experiment deals with HLA-A*02:01 (Homo sapiens, UniProt P04439, D140Y/D185E/D98H/E176V/E277Q/G131W/G231S/I119V/I121R/I166T/I218V/L300P/L318F/N151K/N90K/P208A/P217A/Q86G/Q94H/R138H/R169H/T345S). The experiment in a line: MHC binding assay (UV-ligand exchange, ELISA of exchange yield). The settings on record: binding to HLA-A*02:01, UV-ligand exchange. Summed up:
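ELISA of β2m retained on streptavidin-captured, 100-fold diluted complexes (HRP anti-β2m, TMB, 450 nm) gives the yield. Complexes come from UV-triggered exchange of a photocleavable placeholder peptide for the candidate, which must bind to stop complex dissociation.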
(In general: In an ELISA, binding on a coated surface is turned into a signal by an enzyme label.)
“407 (YLMDLINFL; listed as Homo sapiens) [compound 407]”: the “Peptide exchange (MHC class I binding score, peptide exchange yield)” value (from here on “Peptide exchange”) was ““+++” (≥50 = +++)”.
Next, “408 (VLDDSIYLV; listed as Homo sapiens) [compound 408]”: ““++” (≥20% = ++)”; “409 (LLDAMNYHL; listed as Homo sapiens) [compound 409]”: ““++” (≥20% = ++)”.
The result for “412 (YLDDLNEGVYI; listed as Homo sapiens) [compound 412]” reads ““++” (≥20% = ++)”; that for “426 (RLADKSVLV; listed as Homo sapiens) [compound 426]”, ““+++” (≥50 = +++)”; that for “427 (ALLPLSPYL; listed as Homo sapiens) [compound 427]”, ““+++” (≥50 = +++)”.
Next, “428 (KLGHTDILVGV; listed as Homo sapiens) [compound 428]”: ““++” (≥20% = ++)”; “429 (GLVNDLARV; listed as Homo sapiens) [compound 429]”: ““++” (≥20% = ++)”.
In the case of “430 (HLYSSIEHLTT; listed as Homo sapiens) [compound 430]”, the “Peptide exchange” value was ““+++” (≥50 = +++)”.
Take “431 (SLVNVVPKL; listed as Homo sapiens) [compound 431]”: the “Peptide exchange” value is given as ““++” (≥20% = ++)”.
Next, “432 (TLIEESAKV; listed as Homo sapiens) [compound 432]”: ““++” (≥20% = ++)”.
The result for “433 (AMLNEPWAV; listed as Homo sapiens) [compound 433]” reads ““+++” (≥50 = +++)”.
The result for “434 (KVSNSGITRV; listed as Homo sapiens) [compound 434]” reads ““++” (≥20% = ++)”; that for “436 (HLAEVSAEV; listed as Homo sapiens) [compound 436]”, ““+++” (≥50 = +++)”.
On to “437 (SMAPGLVIQAV; listed as Homo sapiens) [compound 437]”, for which the “Peptide exchange” value is ““+++” (≥50 = +++)”.
“438 (KLLPLAGLYL; listed as Homo sapiens) [compound 438]”: the “Peptide exchange” value is ““++++” (≥75% = ++++)”.
Next, “439 (YLLQEIYGI; listed as Homo sapiens) [compound 439]”: ““+++” (≥50 = +++)”; “440 (ALADGVTMQV; listed as Homo sapiens) [compound 440]”: ““++” (≥20% = ++)”; “441 (ALLENPKMEL; listed as Homo sapiens) [compound 441]”: ““+++” (≥50 = +++)”.
Turning to “442 (GLLGGGGVLGV; listed as Homo sapiens) [compound 442]”, the “Peptide exchange” value was ““+++” (≥50 = +++)”.
As for “443 (GLWEIENNPTV; listed as Homo sapiens) [compound 443]”, the “Peptide exchange” value is listed as ““+++” (≥50 = +++)”.
“444 (GLLRDEALAEV; listed as Homo sapiens) [compound 444]”: the “Peptide exchange” value is ““+++” (≥50 = +++)”.
The result for “446 (QLIPALAKV; listed as Homo sapiens) [compound 446]” reads ““+++” (≥50 = +++)”.
In the case of “447 (QLVPALAKV; listed as Homo sapiens) [compound 447]”, the “Peptide exchange” value is ““++” (≥20% = ++)”.
For the substance “448 (NLLETKLQL; listed as Homo sapiens) [compound 448]”, the “Peptide exchange” value was ““+++” (≥50 = +++)”.
Next, “449 (KLAEGLDIQL; listed as Homo sapiens) [compound 449]”: ““+++” (≥50 = +++)”.
The result for “450 (FMIDASVHPTL; listed as Homo sapiens) [compound 450]” reads ““+++” (≥50 = +++)”.
The result for “451 (LLLLDTVTMQV; listed as Homo sapiens) [compound 451]” reads ““++” (≥20% = ++)”; that for “452 (ILLEHGADPNL; listed as Homo sapiens) [compound 452]”, ““+++” (≥50 = +++)”.
Turning to “453 (KLLEATSAV; listed as Homo sapiens) [compound 453]”, the “Peptide exchange” value was ““++” (≥20% = ++)”.
As to “454 (KLPPPPPQA; listed as Homo sapiens) [compound 454]”, the “Peptide exchange” value is given as ““+++” (≥50 = +++)”.
Next, “455 (SLLKEPQKVQL; listed as Homo sapiens) [compound 455]”: ““++” (≥20% = ++)”; “456 (LLIGHLERV; listed as Homo sapiens) [compound 456]”: ““+++” (≥50 = +++)”; “457 (SLLPGNLVEKV; listed as Homo sapiens) [compound 457]”: ““+++” (≥50 = +++)”.
Take “458 (SLIDKLYNI; listed as Homo sapiens) [compound 458]”: the “Peptide exchange” value was ““++” (≥20% = ++)”.
Consider “459 (ALITEVVRL; listed as Homo sapiens) [compound 459]”, for which the “Peptide exchange” value was ““++” (≥20% = ++)”.
The result for “460 (AMLEKNYKL; listed as Homo sapiens) [compound 460]” reads ““++++” (≥75% = ++++)”.
Next, “461 (VMFRTPLASV; listed as Homo sapiens) [compound 461]”: ““++” (≥20% = ++)”; “462 (KLAKQPETV; listed as Homo sapiens) [compound 462]”: ““+++” (≥50 = +++)”; “463 (SLVESHLSDQLTL; listed as Homo sapiens) [compound 463]”: ““+++” (≥50 = +++)”.
Next, “464 (ALNDCIYSV; listed as Homo sapiens) [compound 464]”: ““+++” (≥50 = +++)”; “465 (QLCDLNAEL; listed as Homo sapiens) [compound 465]”: ““+++” (≥50 = +++)”.
As to “466 (VLIANLEKL; listed as Homo sapiens) [compound 466]”, the “Peptide exchange” value is recorded as ““++++” (≥75% = ++++)”.
In the case of “467 (FLAKDFNFL; listed as Homo sapiens) [compound 467]”, the “Peptide exchange” value is ““+++” (≥50 = +++)”.
The result for “468 (YLRSVGDGETV; listed as Homo sapiens) [compound 468]” reads ““+++” (≥50 = +++)”; that for “469 (YLASDEITTV; listed as Homo sapiens) [compound 469]”, ““+++” (≥50 = +++)”.
As to “471 (YLYNNMIAKI; listed as Homo sapiens) [compound 471]”, the “Peptide exchange” value is recorded as ““+++” (≥50 = +++)”.
For the substance “472 (KLLEVSDDPQV; listed as Homo sapiens) [compound 472]”, the “Peptide exchange” value is reported as ““+++” (≥50 = +++)”.
The result for “473 (AMATESILHFA; listed as Homo sapiens) [compound 473]” reads ““+++” (≥50 = +++)”; that for “474 (YLDPALELGPRNV; listed as Homo sapiens) [compound 474]”, ““+++” (≥50 = +++)”.
Next, “475 (LLLNEEALAQI; listed as Homo sapiens) [compound 475]”: ““+++” (≥50 = +++)”; “476 (ALMERTGYSMV; listed as Homo sapiens) [compound 476]”: ““+++” (≥50 = +++)”; “477 (ALLPASGQIAL; listed as Homo sapiens) [compound 477]”: ““+++” (≥50 = +++)”.
The result for “478 (YLLHEKLNL; listed as Homo sapiens) [compound 478]” reads ““+++” (≥50 = +++)”; that for “479 (SLFGNSGILENV; listed as Homo sapiens) [compound 479]”, ““+++” (≥50 = +++)”; that for “480 (ALLEDSCHYL; listed as Homo sapiens) [compound 480]”, ““+++” (≥50 = +++)”.
Take “481 (GLIEDYEALL; listed as Homo sapiens) [compound 481]”: the “Peptide exchange” value was ““+++” (≥50 = +++)”.
As to “484 (SLIEKVTQL; listed as Homo sapiens) [compound 484]”, the “Peptide exchange” value is recorded as ““+++” (≥50 = +++)”.
For “485 (NVPDSFNEV; listed as Homo sapiens) [compound 485]”, the “Peptide exchange” value is ““+++” (≥50 = +++)”.
The result for “486 (AVMESIQGV; listed as Homo sapiens) [compound 486]” reads ““+++” (≥50 = +++)”.
For the substance “487 (LLINSVFHV; listed as Homo sapiens) [compound 487]”, the “Peptide exchange” value was ““+++” (≥50 = +++)”.
